Data on 1 molecule can be found in patent US20030170823A1 (ZymoGenetics, published 2003).

The target in this test is T1, CRF2-4/zcytor11 heterodimeric receptor on BaF3 cells (human, UniProt Q08334 20-325, limits assumed).
T1 sequence 1: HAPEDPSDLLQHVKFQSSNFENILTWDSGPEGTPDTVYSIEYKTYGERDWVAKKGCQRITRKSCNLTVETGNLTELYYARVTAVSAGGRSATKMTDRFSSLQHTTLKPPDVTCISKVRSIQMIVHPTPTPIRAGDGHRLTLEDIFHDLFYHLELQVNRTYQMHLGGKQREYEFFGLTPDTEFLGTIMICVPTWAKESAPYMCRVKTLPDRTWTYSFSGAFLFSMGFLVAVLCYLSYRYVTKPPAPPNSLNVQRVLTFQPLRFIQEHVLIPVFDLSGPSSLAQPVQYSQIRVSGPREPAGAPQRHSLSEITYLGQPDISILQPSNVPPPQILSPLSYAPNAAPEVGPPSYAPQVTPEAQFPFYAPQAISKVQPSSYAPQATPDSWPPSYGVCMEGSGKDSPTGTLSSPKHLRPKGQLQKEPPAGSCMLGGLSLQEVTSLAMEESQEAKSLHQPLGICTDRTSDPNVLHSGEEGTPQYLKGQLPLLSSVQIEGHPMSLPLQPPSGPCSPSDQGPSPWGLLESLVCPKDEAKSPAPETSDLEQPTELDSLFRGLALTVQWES
T1 sequence 2: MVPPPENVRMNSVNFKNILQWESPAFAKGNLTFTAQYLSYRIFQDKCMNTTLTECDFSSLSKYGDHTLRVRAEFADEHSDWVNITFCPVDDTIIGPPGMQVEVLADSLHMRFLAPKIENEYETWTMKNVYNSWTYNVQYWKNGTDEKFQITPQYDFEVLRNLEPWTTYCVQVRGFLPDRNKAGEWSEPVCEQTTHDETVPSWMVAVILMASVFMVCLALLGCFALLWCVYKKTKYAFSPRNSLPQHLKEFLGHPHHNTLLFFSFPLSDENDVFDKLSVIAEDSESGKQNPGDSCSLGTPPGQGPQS
As to the kind of experiment: cell-based or functional assay.

B1: ZCYTO18-CEE polypeptide purified from BHK 570 cells (ligand)
chain: APISSHCRLDKSNFQQPYITNRTFMLAKEASLADNNTDVRLIGEKLFHGVSMSERCYLMKQVLNFTLEEVLFPQSDRFQPYMQEVVPFLARLSNRLSTCHIEGDDLHIQRNVQKLKDTVKKLGESGEIKAIGELDLLFMSLRNACIEYMPME
Turning to B1, the “proliferation of BaF3/CRF2-4/zcytor11 cells (Alamar Blue), fold induction at 0.06 ng/ml ZCYTO18-CEE” value was about 2 fold induction and the “proliferation of BaF3/CRF2-4/zcytor11 cells (Alamar Blue), fold over background at 50 ng/ml ZCYTO18-CEE” value is about 15 fold over background.
